# T1: Myo5 SH3 (MYO5_YEAST), Q04439
# T1 chain: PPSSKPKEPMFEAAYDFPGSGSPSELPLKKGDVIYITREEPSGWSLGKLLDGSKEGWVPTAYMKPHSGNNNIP
# Target: T1, Myo5 SH3 (MYO5_YEAST), Q04439
# Assay: SPOT array
row,Binder,"normalised SPOT signal, Boehringer light units (BLU); mean over the file's lines of this peptide"
1,FENLLMEPNLPFFT [YJR031C 942-955],202
2,FESFLRPPSTPDLP [YLR149C 637-650],70.2
3,FESTLPIPTYPREG [YEL070W 20-33],122
4,FFFFHLSPSIPFWF [YDL196W 57-70],6490
5,FFNRYPNPYSPHVL [YLR193C 22-35],137
6,FFPIMSLPVTPVKS [YER032W 46-59],122
7,FFQLMQSPSLPLLM [YDR159W 429-442],830
8,FFTIWFIPLVPVFW [YBL029C-A 44-57],397
9,FLALFSDPARPFLT [YHL005C 61-74],452
10,FLPVFNLPSNPALF [YKL083W 42-55],154
11,FLRTMAQPTDPKDQ [YER171W 720-733],257
12,FLSRYPVPDLPIYL [YDR422C 770-783],1340
13,FLSYMSEPKYPSNE [YJL029C 360-373],142
14,FLTVYILPKNPFRV [YGR293C 121-134],1470
15,FLYPYDDPNAPIDE [YCR079W 210-223],55.4
16,FPFYLSFPFSPSFP [YLR198C 23-36],760
17,FPKKMGPPQWPFST [YHR199C 84-97],279
18,FWKIHLSPPLPSFK [YGR018C 23-36],966
19,GAGGLGSPALPYLA [YHR111W 74-87],111
20,GAPPLPVPNGPAVG [YPL190C 573-586],222
21,GARFLPAPHRPEKY [YGR154C 63-76],153
22,GEFFHSSPNIPHYA [YLR244C 297-310],271
23,GEIMFPAPPLPIAN [YDL172C 53-66],2770

# Reference: PMC314469, “Protein Interaction Networks by Proteome Peptide Scanning” (PLoS Biology, 2004)
